The source of these data is article PMC2605612.

A word on the stoichiometry N: it is a count of units in the complex or per binding partner.

The target of this experiment is T1, Myc-hFis1[1-152] (human), Q9Y3D6.
T1 chain: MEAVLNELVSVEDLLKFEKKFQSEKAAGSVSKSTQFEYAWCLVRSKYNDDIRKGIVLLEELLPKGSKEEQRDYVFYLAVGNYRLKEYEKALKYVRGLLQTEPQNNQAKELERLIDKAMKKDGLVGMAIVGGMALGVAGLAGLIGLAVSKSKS
The experiment is described as follows: cross-linking. The note with it: remark: other sources report otherwise.

B1: Myc-hFis1[1-152], Q9Y3D6 1-152 (natural protein)
chain: T1 chain
In the case of B1, the stoichiometry N worked out at 2.
